Experimental data published in article PMC5722641 (Developmental Cell, 2017).

Molecular target: purified Drosophila E2F1 (in vitro binding assay) (Drosophila, UniProt Q27368 1-805)
Assay: in vitro binding assay

Sequence of purified Drosophila E2F1 (in vitro binding assay) (Q27368 whole entry): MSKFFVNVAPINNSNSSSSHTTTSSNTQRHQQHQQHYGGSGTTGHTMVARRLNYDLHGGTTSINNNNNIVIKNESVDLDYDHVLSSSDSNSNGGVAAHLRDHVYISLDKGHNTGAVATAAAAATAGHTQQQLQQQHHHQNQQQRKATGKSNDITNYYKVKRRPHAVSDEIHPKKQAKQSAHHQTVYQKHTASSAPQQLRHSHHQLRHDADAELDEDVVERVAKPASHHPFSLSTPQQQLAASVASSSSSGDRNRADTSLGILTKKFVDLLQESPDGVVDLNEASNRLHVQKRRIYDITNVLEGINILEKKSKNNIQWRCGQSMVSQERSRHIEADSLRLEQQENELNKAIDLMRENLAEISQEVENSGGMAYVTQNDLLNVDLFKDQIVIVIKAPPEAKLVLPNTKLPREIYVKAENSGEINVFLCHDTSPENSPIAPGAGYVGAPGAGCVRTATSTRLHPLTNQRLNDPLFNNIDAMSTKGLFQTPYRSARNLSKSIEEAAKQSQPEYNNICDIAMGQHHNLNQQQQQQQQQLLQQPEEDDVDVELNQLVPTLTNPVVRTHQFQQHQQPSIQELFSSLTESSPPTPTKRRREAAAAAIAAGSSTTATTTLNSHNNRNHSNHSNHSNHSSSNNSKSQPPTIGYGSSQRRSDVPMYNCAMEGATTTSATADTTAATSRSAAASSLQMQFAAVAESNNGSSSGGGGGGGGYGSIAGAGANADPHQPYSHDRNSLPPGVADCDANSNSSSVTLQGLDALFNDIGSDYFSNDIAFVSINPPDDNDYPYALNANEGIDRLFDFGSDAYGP

B1: purified Drosophila Sd (in vitro binding assay) (natural protein)
chain: MKNITSSSTCSTGLLQLQNNLSCSELEVAEKTEQQAVGPGTIPSPWTPVNAGPPGALGSADTNGSMVDSKNLDVGDMSDDEKDLSSADAEGVWSPDIEQSFQEALSIYPPCGRRKIILSDEGKMYGRNELIARYIKLRTGKTRTRKQVSSHIQVLARRKLREIQAKIKVQFWQPGLQPSTSQDFYDYSIKPFPQPPYPAGKTSTAVSGDETGIPPSQLPWEGRAIATHKFRLLEFTAFMEIQRDEIYHRHLFVQLGGKPSFSDPLLETVDIRQIFDKFPEKSGGLKDLYEKGPQNAFYLVKCWADLNTDLTTGSETGDFYGVTSQYESNENVVLVCSTIVCSFGKQVVEKVESEYSRLENNRYVYRIQRSPMCEYMINFIQKLKNLPERYMMNSVLENFTILQVMRARETQETLLCIAYVFEVAAQNSGTTHHIYRLIKE
binding result: binds
